The target of experiment [1] is ancGR2-LBD Y545C mutant, DEX-bound. The experiment is described as follows: cross-linking.
Experiment [2] shares this target. The experiment is described as follows: SPR. (In general: Surface plasmon resonance follows binding to a sensor surface in real time, without labels.)
Experiment [3] deals with ancGR2-LBD (ancient variant of the glucocorticoid receptor ligand-binding domain), wild type, DEX-bound. Nature of the experiment: cross-linking.
The target is the same in experiment [4]. Nature of the experiment: SPR.
Experiment [5] deals with GFP-mGR Y545A (mouse). Nature of the experiment: number and brightness.
In experiment [6] the target is GFP-mGR GR^dim/Y545A double mutant (mouse). Nature of the experiment: number and brightness.

Values joined by “and” are separate entries in the source; they are usually repeats but may differ in a detail not shown here. Equal values may be shown once.

In experiment [1], “ancGR2-LBD Y545C mutant, DEX-bound (domain or fragment)” came in with a stoichiometry N of 2. Also, the kD1 (multisite model, first binding site) in experiment [2] is 0.8 µM.

As to “ancGR2-LBD (ancient variant of the glucocorticoid receptor ligand-binding domain), wild type, DEX-bound (domain or fragment)”, in experiment [3], the stoichiometry N was 2 and 4. In experiment [4], this substance had a Kd of 15.3 µM; a kD1 (multisite model, first of two independent binding sites) of 2.2 µM; a kD2 (multisite model, second of two independent binding sites) of 27.9 µM.

GFP-mGR Y545A (natural protein) returned a stoichiometry N in experiment [5] of 4.

In experiment [6], “GFP-mGR GR^dim/Y545A double mutant (natural protein)” yielded a stoichiometry N of 3.

One may read the stoichiometry N as a count of units in the complex or per binding partner. The Kd is the constant that tells how readily two partners part at equilibrium. High values mean a looser complex, low ones a tighter complex.
